According to US20090142784:

Columns and labels:
[1] = biological target: T1, Nictide (RLGWWRFYTLRRARQGNTKQR)
T1 chain: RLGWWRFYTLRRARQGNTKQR

[2] = biological target: T2, LRRKtide peptide (RLGRDKYKTLRQIRQ)
T2 chain: RLGRDKYKTLRQIRQ

B1: GST-LRRK2[1326-2527, G2019S] (protein)
chain: LKKAVPYNRMKLMIVGNTGSGKTTLLQQLMKTKKSDLGMQSATVGIDVKDWPIQIRDKRKRDLVLNVWDFAGREEFYSTHPHFMTQRALYLAVYDLSKGQAEVDAMKPWLFNIKARASSSPVILVGTHLDVSDEKQRKACMSKITKELLNKRGFPAIRDYHFVNATEESDALAKLRKTIINESLNFKIRDQLVVGQLIPDCYVELEKIILSERKNVPIEFPVIDRKRLLQLVRENQLQLDENELPHAVHFLNESGVLLHFQDPALQLSDLYFVEPKWLCKIMAQILTVKVEGCPKHPKGIISRRDVEKFLSKKRKFPKNYMSQYFKLLEKFQIALPIGEEYLLVPSSLSDHRPVIELPHCENSEIIIRLYEMPYFPMGFWSRLINRLLEISPYMLSGRERALRPNRMYWRQGIYLNWSPEAYCLVGSEVLDNHPESFLKITVPSCRKGCILLGQVVDHIDSLMEEWFPGLLEIDICGEGETLLKKWALYSFNDGEEHQKILLDDLMKKAEEGDLLVNPDQPRLTIPISQIAPDLILADLPRNIMLNNDELEFEQAPEFLLGDGSFGSVYRAAYEGEEVAVKIFNKHTSLRLLRQELVVLCHLHHPSLISLLAAGIRPRMLVMELASKGSLDRLLQQDKASLTRTLQHRIALHVADGLRYLHSAMIIYRDLKPHNVLLFTLYPNAAIIAKIADYSIAQYCCRMGIKTSEGTPGFRAPEVARGNVIYNQQADVYSFGLLLYDILTTGGRIVEGLKFPNEFDELEIQGKLPDPVKEYGCAPWPMVEKLIKQCLKENPQERPTSAQVFDILNSAELVCLTRRILLPKNVIVECMVATHHNSRNASIWLGCGHTDRGQLSFLDLNTEGYTSEEVADSRILCLALVHLPVEKESWIVSGTQSGTLLVINTEDGKKRHTLEKMTDSVTCLYCNSFSKQSKQKNFLLVGTADGKLAIFEDKTVKLKGAAPLKILNIGNVSTPLMCLSESTNSTERNVMWGGCGTKIFSFSNDFTIQKLIETRTSQLFSYAAFSDSNIITVVVDTALYIAKQNSPVVEVWDKKTEKLCGLIDCVHFLREVMVKENKESKHKMSYSGRVKTLCLQKNTALWIGTGGGHILLLDLSTRRLIRVIYNFCNSVRVMMTAQLGSLKNVMLVLGYNRKNTEGTQKQKEIQSCLTVWDINLPHEVQNLEKHIEVRKELAEKMRRTSVE
[1]
  Km (concentration dependent phosphorylation of Nictide, 5 min reactions): Calculated Km values are 6 µM for Nictide
[2]
  Km (phosphorylation of LRRKtide, P81 paper 32P assay): a similar Km of approximately 200 µM
